Measured values as given in US20230322953A1 (HARBOUR BIOMED SHANGHAI, published 2023).
Blank lines part the entries; values can stand above or below the binder they belong to.

Key:
[1] = molecular target: T1, human BCMA (human, UniProt Q02223 1-184); test: cell-based or functional assay
T1 sequence (looked up): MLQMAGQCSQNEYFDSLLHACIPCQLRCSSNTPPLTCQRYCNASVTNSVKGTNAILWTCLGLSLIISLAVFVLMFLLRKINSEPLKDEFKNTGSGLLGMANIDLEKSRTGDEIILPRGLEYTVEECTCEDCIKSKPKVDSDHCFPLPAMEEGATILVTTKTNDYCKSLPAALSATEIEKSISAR

[2] = molecular target: T1, human BCMA; test: flow cytometry, NCI-H929 cells
[3] = molecular target: T1, human BCMA; test: flow cytometry, HEK293T/hBCMA cells
[4] = molecular target: T2, cynomolgus monkey BCMA (cynomolgus monkey); test: flow cytometry, HEK293T/cyno BCMA cells
T2 construct: whole, on cells; also called cyno BCMA; HEK293T/cyno BCMA cells

[5] = molecular target: T3, biotinylated human BCMA-Fc, Avitag recombinant protein (ACRO Biosystems, #BC7-H82F0) (human, UniProt Q02223 1-54, biotinylated); test: BLI (Octet Red96e), biotinylated BCMA-Fc on SA sensor, antibody in solution, 1:1 global fit
T3 construct: extracellular domain; Bought protein; also called human BCMA protein; recombinant human BCMA-ECD-Fc; not shown: Fc of the bought fusion protein; Avitag
T3 sequence (looked up): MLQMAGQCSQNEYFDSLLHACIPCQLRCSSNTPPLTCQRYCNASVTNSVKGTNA

[6] = molecular target: T4, human PD-L1 on cells (CHO-K1/hPDL1; MDA-MB-231) (human, UniProt Q9NZQ7 19-290); test: FACS, MDA-MB-231 cells
T4 construct: whole, on cells

[7] = molecular target: T5, human CTLA4 on cells (CHO-K1/hCTLA4; HEK293/hCTLA4; 293F-hCTLA4) (human, UniProt P16410 36-223); test: FACS, HEK293/hCTLA4 cells
T5 construct: whole, on cells

[8] = molecular target: T5, human CTLA4 on cells (CHO-K1/hCTLA4; …); test: FACS, CHO-K1/hCTLA4 cells (Test 2)
[9] = molecular target: T4, human PD-L1 on cells (CHO-K1/hPDL1; …); test: FACS, CHO-K1/hPDL1 cells (Experiment 2)
[10] = molecular target: T4, human PD-L1 on cells (CHO-K1/hPDL1; …); test: competition FACS: biotinylated PD-1 to CHO-K1/hPDL1 cells
[11] = molecular target: T5, human CTLA4 on cells (CHO-K1/hCTLA4; …); test: competition FACS: biotinylated B7-1-Fc to CHO-K1/hCTLA4 cells (Test 2)
[12] = molecular target: T4, human PD-L1 on cells (CHO-K1/hPDL1; …); test: competition FACS: biotinylated PD-1 to CHO-K1/hPDL1 cells (Experiment 2)
[13] = molecular target: T5, human CTLA4 on cells (CHO-K1/hCTLA4; …); test: cell-based or functional assay
[14] = molecular target: T6, human CTLA4-His protein (ACRO Biosystems, #CT4-H5229) (human, UniProt P16410 36-161); test: ELISA, coated hCTLA4-His
T6 construct: extracellular domain; bought; also called hCTLA4-His; human CTLA4 extracellular domain recombinant protein

[15] = molecular target: T5, human CTLA4 on cells (CHO-K1/hCTLA4; …); test: FACS, CHO-K1/hCTLA4 cells (Test 1)
[16] = molecular target: T7, biotinylated human CTLA4-Fc protein (ACRO Biosystems, #CT4-H82F3) (human, UniProt P16410 36-161, biotinylated); test: competition ELISA: biotinylated hCTLA4-Fc to coated B7-1-Fc
T7 construct: bought; also called human CTLA4 protein

[17] = molecular target: T5, human CTLA4 on cells (CHO-K1/hCTLA4; …); test: competition FACS: biotinylated B7-1-Fc to CHO-K1/hCTLA4 cells (Test 1)

T4 sequence (Q9NZQ7 19-290): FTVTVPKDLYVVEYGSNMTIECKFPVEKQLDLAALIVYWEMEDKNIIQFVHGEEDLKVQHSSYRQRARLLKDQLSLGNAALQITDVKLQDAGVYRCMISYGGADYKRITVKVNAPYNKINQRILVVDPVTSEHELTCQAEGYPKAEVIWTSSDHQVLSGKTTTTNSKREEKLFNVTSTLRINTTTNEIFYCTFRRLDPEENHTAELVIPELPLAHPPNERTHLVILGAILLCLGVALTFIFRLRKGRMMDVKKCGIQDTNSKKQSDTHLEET
T5 sequence (P16410 36-223): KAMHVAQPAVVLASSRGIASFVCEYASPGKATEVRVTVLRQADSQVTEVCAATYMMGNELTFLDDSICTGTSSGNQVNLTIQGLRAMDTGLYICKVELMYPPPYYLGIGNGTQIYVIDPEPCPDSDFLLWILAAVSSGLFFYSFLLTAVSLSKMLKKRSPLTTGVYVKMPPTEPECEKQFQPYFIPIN
T7 sequence (P16410 36-161 limits assumed): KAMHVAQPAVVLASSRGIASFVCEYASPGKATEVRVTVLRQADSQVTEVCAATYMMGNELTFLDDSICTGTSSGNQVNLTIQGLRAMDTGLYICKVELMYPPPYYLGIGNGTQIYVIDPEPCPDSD
T6 sequence (P16410 36-161): as the sequence (P16410 36-161 limits assumed) above

EC50 [2]: 1.53 nM
Maximum MFI [2]: 133000
EC50 [3]: 0.213 nM
Maximum MFI [3]: 63400
EC50 [4]: 0.564 nM
Maximum MFI [4]: 67700
Kd [5]: 0.0253 nM
koff [5]: 1.07e-05 s⁻¹
kon [5]: 423000 M⁻¹ s⁻¹
B1: PR001046, anti-BCMA HCAb antibody, clone 1005P63B7 (antibody, human IgG1, V domains shown)
VH: EVQLVETGGGLIQPGGSLRLSCAASGFTVSDNYMTWVRQAPGKGLEWVSVIFSGGNTYYADSVKGRFTISRDNAKNTLYLQMNSLRAEDTALYYCARRNYDDTRGTDVFDIWGQGTMVTVSS
notes: Heavy-chain-only antibody (HCAb), human IgG1 Fc, no light chain
EC50 (nM), target cell killing mediated by antibody internalization (HEK293T/hBCMA cells, a-hFc-MMAF) [1]: 0.571 nM
Maximum killing rate (%), target cell killing mediated by antibody internalization (HEK293T/hBCMA cells, a-hFc-MMAF) [1]: 71.2%

EC50 [2]: 4.8 nM
Maximum MFI [2]: 166000
EC50 [3]: 0.153 nM
Maximum MFI [3]: 70000
EC50 [4]: 0.329 nM
Maximum MFI [4]: 64000
Kd [5]: 0.162 nM
koff [5]: 1.93e-05 s⁻¹
kon [5]: 119000 M⁻¹ s⁻¹
B2: PR000943, anti-BCMA HCAb antibody, clone 1005P16A10 (antibody, human IgG1, V domains shown)
VH: EVQLVETGGGLIQPGGSLRLSCAASGFPVSSNYMSWVRQAPGKGLEWVSVIFSGGRTYYADSVKGRFTISRDNSKNTLYLQMNSLRAEDTAVYYCARRNWIDGRDAFDIWGQGTMVTVSS
notes: as for B1
EC50 (nM), target cell killing mediated by antibody internalization (HEK293T/hBCMA cells, a-hFc-MMAF) [1]: 0.492 nM
Maximum killing rate (%), target cell killing mediated by antibody internalization (HEK293T/hBCMA cells, a-hFc-MMAF) [1]: 78.7%

EC50 [6]: 0.288 nM
Maximum MFI [6]: 994 MFI
EC50 [7]: 5.17 nM
Maximum MFI [7]: 1910 MFI
B3: PR000401 (bispecific antibody, human IgG1, kappa, L234A L235A)
light: DIQMTQSPSTLSASVGDRVTVTCRASQSIYIWLAWYQQKPGKAPNLLIYKASSLETGVPSRFSGSGSGTEFTLTISSLQPDDFATYYCQQYYGSSRTFGQGTKVEIKRTVAAPSVFIFPPSDEQLKSGTASVVCLLNNFYPREAKVQWKVDNALQSGNSQESVTEQDSKDSTYSLSSTLTLSKADYEKHKVYACEVTHQGLSSPVTKSFNRGEC
chain: EVQLVESGGGLVQPGGSLRLSCAASGFTFSSYWMSWVRQAPGKGLEWVANIKQEGSEKYYVDSVKGRFTISRDNAKNSLYLQMNSLRAEDTAVYYCARDRAVAGAFDIWGQGTMVTVSSASTKGPSVFPLAPSSKSTSGGTAALGCLVKDYFPEPVTVSWNSGALTSGVHTFPAVLQSSGLYSLSSVVTVPSSSLGTQTYICNVNHKPSNTKVDKKVEPKSCDKTHTCPPCPAPEAAGGPSVFLFPPKPKDTLMISRTPEVTCVVVDVSHEDPEVKFNWYVDGVEVHNAKTKPREEQYNSTYRVVSVLTVLHQDWLNGKEYKCKVSNKALGAPIEKTISKAKGQPREPQVYTLPPSREEMTKNQVSLTCLVKGFYPSDIAVEWESNGQPENNYKTTPPVLDSDGSFFLYSKLTVDKSRWQQGNVFSCSVMHEALHNHYTQKSLSLSPGKLEPKSSDKTHTPPPPPRTEVQLVESGGGLIQPGGSLRLSCAVSGFTVSKNYMSWVRQAPGKGLEWVSVVYSGGSKTYADSVKGRFTISRDNSKNTLYLQMNSLRAEDTAVYYCARAVPHSPSSFDIWGQGTMVTVSS
notes: PD-L1×CTLA4, structure 5

EC50 [6]: 0.259 nM
Maximum MFI [6]: 841 MFI
EC50 [7]: 2.4 nM
Maximum MFI [7]: 1760 MFI
B4: PR000402 (bispecific antibody, human IgG1, kappa, L234A L235A)
light: B3 light
chain: EVQLVESGGGLVQPGGSLRLSCAASGFTFSSYWMSWVRQAPGKGLEWVANIKQEGSEKYYVDSVKGRFTISRDNAKNSLYLQMNSLRAEDTAVYYCARDRAVAGAFDIWGQGTMVTVSSASTKGPSVFPLAPSSKSTSGGTAALGCLVKDYFPEPVTVSWNSGALTSGVHTFPAVLQSSGLYSLSSVVTVPSSSLGTQTYICNVNHKPSNTKVDKKVEPKSCDKTHTCPPCPAPEAAGGPSVFLFPPKPKDTLMISRTPEVTCVVVDVSHEDPEVKFNWYVDGVEVHNAKTKPREEQYNSTYRVVSVLTVLHQDWLNGKEYKCKVSNKALGAPIEKTISKAKGQPREPQVYTLPPSREEMTKNQVSLTCLVKGFYPSDIAVEWESNGQPENNYKTTPPVLDSDGSFFLYSKLTVDKSRWQQGNVFSCSVMHEALHNHYTQKSLSLSPGKLGGGGSGGGGSGGGGSRTEVQLVESGGGLIQPGGSLRLSCAVSGFTVSKNYMSWVRQAPGKGLEWVSVVYSGGSKTYADSVKGRFTISRDNSKNTLYLQMNSLRAEDTAVYYCARAVPHSPSSFDIWGQGTMVTVSS
notes: PD-L1×CTLA4, structure 5

EC50 [6]: 0.163 nM
Maximum MFI [6]: 958 MFI
B5: PR000265, anti-PD-L1 91G3H5H3(D54E), hIgG1(N297A) (antibody)
heavy: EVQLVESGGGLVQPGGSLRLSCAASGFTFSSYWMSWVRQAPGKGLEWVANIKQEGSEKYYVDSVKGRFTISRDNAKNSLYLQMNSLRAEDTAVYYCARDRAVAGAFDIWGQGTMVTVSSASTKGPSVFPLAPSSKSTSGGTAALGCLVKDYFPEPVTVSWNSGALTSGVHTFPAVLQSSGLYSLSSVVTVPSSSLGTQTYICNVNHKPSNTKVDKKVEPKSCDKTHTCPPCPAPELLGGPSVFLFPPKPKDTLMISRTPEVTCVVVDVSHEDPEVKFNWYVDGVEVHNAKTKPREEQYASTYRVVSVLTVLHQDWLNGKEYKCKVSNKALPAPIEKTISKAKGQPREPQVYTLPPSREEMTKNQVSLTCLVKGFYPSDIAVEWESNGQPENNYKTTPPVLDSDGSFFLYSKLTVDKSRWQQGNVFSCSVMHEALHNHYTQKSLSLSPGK
light: B3 light

EC50 [2]: 10.8 nM
Maximum MFI [2]: 125000
EC50 [3]: 4.08 nM
Maximum MFI [3]: 86500
EC50 [4]: 4.56 nM
Maximum MFI [4]: 116000
B6: PR000274, anti-BCMA monoclonal antibody CA8-J6M0 (antibody, human IgG1, kappa, V domains shown)
VH: QVQLVQSGAEVKKPGSSVKVSCKASGGTFSNYWMHWVRQAPGQGLEWMGATYRGHSDTYYNQKFKGRVTITADKSTSTAYMELSSLRSEDTAVYYCARGAIYDGYDVLDNWGQGTLVTVSS
VL: DIQMTQSPSSLSASVGDRVTITCSASQDISNYLNWYQQKPGKAPKLLIYYTSNLHSGVPSRFSGSGSGTDFTLTISSLQPEDFATYYCQQYRKLPWTFGQGTKLEIKR
notes: Control antibody; also called Positive control 1; CA8-J6M0 hIgG1
EC50 (nM), target cell killing mediated by antibody internalization (HEK293T/hBCMA cells, a-hFc-MMAF) [1]: 2.18 nM
Maximum killing rate (%), target cell killing mediated by antibody internalization (HEK293T/hBCMA cells, a-hFc-MMAF) [1]: 77.2%

EC50 [8]: 12 nM
Maximum MFI [8]: 677 MFI
EC50 [9]: 0.93 nM
Maximum MFI [9]: 6710 MFI
fold poorer IC50 than the parent monoclonal antibody [10]: 2 to 3 fold
IC50 [11]: 4.49 nM
Maximum inhibition rate (%) [11]: 99.8%
IC50 [12]: 0.88 nM
Maximum inhibition rate (%) [12]: 81.1%
B7: PR001574 (bispecific antibody, human IgG1, kappa)
chain: EVQLVESGGGLIQPGGSLRLSCAVSGFTVSKNYMSWVRQAPGKGLEWVSVVYSGGSKTYADSVKGRFTISRDNSKNTLYLQMNSLRAEDTAVYYCARAVPHSPSSFDIWGQGTMVTVSSKLEPKSSDKTHTPPPPPRTDIQMTQSPSTLSASVGDRVTVTCRASQSIYIWLAWYQQKPGKAPNLLIYKASSLETGVPSRFSGSGSGTEFTLTISSLQPDDFATYYCQQYYGSSRTFGQGTKVEIKRTVAAPSVFIFPPSDEQLKSGTASVVCLLNNFYPREAKVQWKVDNALQSGNSQESVTEQDSKDSTYSLSSTLTLSKADYEKHKVYACEVTHQGLSSPVTKSFNRGEC
heavy: not shown
notes: PD-L1×CTLA4, structure 4

EC50 [8]: 8.52 nM
Maximum MFI [8]: 585 MFI
EC50 [9]: 0.96 nM
Maximum MFI [9]: 6610 MFI
fold poorer IC50 than the parent monoclonal antibody [10]: 2 to 3 fold
IC50 [11]: 4.88 nM
Maximum inhibition rate (%) [11]: 99.7%
IC50 [12]: 0.61 nM
Maximum inhibition rate (%) [12]: 81%
B8: PR001577 (bispecific antibody, human IgG1, kappa)
chain: B7 chain
heavy: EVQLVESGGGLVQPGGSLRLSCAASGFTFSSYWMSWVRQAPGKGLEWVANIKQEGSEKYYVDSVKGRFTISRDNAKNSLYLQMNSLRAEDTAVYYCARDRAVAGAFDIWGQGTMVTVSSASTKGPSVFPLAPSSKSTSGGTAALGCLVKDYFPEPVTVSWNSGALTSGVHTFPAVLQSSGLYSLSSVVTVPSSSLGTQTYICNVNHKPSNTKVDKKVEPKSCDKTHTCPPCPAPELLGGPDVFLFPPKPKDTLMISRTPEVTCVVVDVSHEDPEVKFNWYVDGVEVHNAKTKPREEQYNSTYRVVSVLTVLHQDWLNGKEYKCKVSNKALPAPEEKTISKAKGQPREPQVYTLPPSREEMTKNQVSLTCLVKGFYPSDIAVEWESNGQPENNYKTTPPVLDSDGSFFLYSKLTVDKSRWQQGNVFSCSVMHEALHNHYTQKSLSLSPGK
notes: PD-L1×CTLA4, structure 4, Fc S239D, I332E

EC50 [14]: 0.599 nM
Maximum OD450 [14]: 3.01 OD450
EC50 [7]: 1.15 nM
Maximum MFI [7]: 2260 MFI
EC50 [15]: 1.69 nM
Maximum MFI [15]: 1670 MFI
EC50 [8]: 4.64 nM
Maximum MFI [8]: 722 MFI
IC50 [16]: 2.67 nM
Maximum inhibition rate (%) [16]: 97.2%
IC50 [17]: 4.13 nM
Maximum inhibition rate (%) [17]: 99.7%
IC50 [11]: 3.01 nM
Maximum inhibition rate (%) [11]: 100%
B9: PR000184, anti-CTLA4 heavy-chain antibody CL5v3, hIgG1 (antibody, V domains shown)
VH: EVQLVESGGGLIQPGGSLRLSCAVSGFTVSKNYMSWVRQAPGKGLEWVSVVYSGGSKTYADSVKGRFTISRDNSKNTLYLQMNSLRAEDTAVYYCARAVPHSPSSFDIWGQGTMVTVSS
notes: heavy-chain-only antibody (VH-Fc dimer); also called anti-CTLA4 HCAb monoclonal antibody PR000184
ADCC killing of 293F-hCTLA4 cells, EC50 [13]: 0.015 nM
ADCC killing of 293F-hCTLA4 cells, Maximum killing rate (%) [13]: 30.2%
